# Source: the supplement of paper PMC9732359
# ± gives the uncertainty stated by the source.
# Assay: protein stability index of a GFP-peptide fusion (yeast GPS) (PSI 1-4); higher = more stable; sorted into four equal gates, so the index is relative within each strain
# Settings: san1∆
# Summary of the method: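 Plasmids in a pooled yeast library fused tiled 17-residue yeast protein peptides downstream of GFP and also expressed Cherry. Mid-log cultures grown without leucine were sorted into four equal gates by GFP/Cherry fluorescence ratio. Each gate's plasmids were PCR-amplified and Illumina-sequenced, and reads were matched to strains by barcodes. The protein stability index is derived by multiplying each gate's read frequency by its gate number and summing the results.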
row,Sequence,protein stability index
1,EGIIKPISKHSKQAIYT [RPS25A],1.47 ± 0.095
2,EGKVTKLRRECSNPTCG [RPS31],3.18 ± 0.078
3,EGLDELPKIIQLQGPQW [SOH1],3.18 ± 0.043
4,EGLSAQIAFDLVSSASQ [RPN2],2.67 ± 0.1
5,EGPKKCIQVNCLNCEKS [SNM1],2.8 ± 0.073
6,EGQLKPGDGSSYINVTF [RPC25],2.77 ± 0.19
7,EGTPINNVYFAAGALFV [RPN14],2.72 ± 0.12
8,EGWFYKRAASVARHIYM [RPS19A],1.99 ± 0.14
9,EGYGLRDVMCTDGVIGS [RPO31],2.58 ± 0.14
10,EHFLKLNIDFGSDKQMF [YML103C/NUP188],2.26 ± 0.1
11,EIDHQEYSPEILQIREE [RRP6],3.21 ± 0.094
12,EIENLDKELRKTKFQYK [YIL149C/MLP2],3.07 ± 0.067
13,EIEQNTELLDEFIAAVN [RPN10],2.79 ± 0.099
14,EIESIDKLPQFVDENTF [RPN1],3.09 ± 0.085
15,EIFHLLQPLEEGLIIDT [SIN4],2.21 ± 0.22
16,EIIADWIWDMNVHGSLE [BRR2],2.88 ± 0.085
17,EIILKLCRNPLTSGLLY [YJL039C/NUP192],1.22 ± 0.16
18,EIKKMIITNINAIFLSS [YCG1],1.8 ± 0.081
19,EIKNDFIMVKGCIPGNR [RPL3],1.48 ± 0.16
20,EILNECHDELKALPMLE [MED4],2.59 ± 0.083
21,EILRIHSRKMNLTRGIN [RPT6],2.29 ± 0.075
22,EILVEESGLRPVSLLNS [PCI8],3.16 ± 0.063
23,EILVLYNVCDTSKSLVK [SIN4],2.56 ± 0.058
24,EINETEFIRCGCLIKNL [RMP1],2.82 ± 0.099
25,EIPEGVTVSIKSRIVKV [RPL9B],1.44 ± 0.27

row,Sequence,protein stability index
1,EIRAKEYKTSSDSLGPD [SRB2],3.04 ± 0.053
2,EISISFDVNNIDMHLIY [YDL116W/NUP84],2.02 ± 0.089
3,EISLKAHCILGIGGDHA [RPC40],1.28 ± 0.3
4,EISPQDSIASVLSPDSN [GAL11],2.98 ± 0.087
5,EIVWTSSLIKAGLDKGI [RPO31],2.54 ± 0.05
6,EKAVEEKPAVKSYASLL [RPT3],2.92 ± 0.052
7,EKGLNELSIRDVTHTLG [SMC4],2.48 ± 0.17
8,EKIKMKLKQGQKLFVQV [GAL11],3.28 ± 0.074
9,EKKAASAKQTAPNNSNG [MED7],2.95 ± 0.14
10,EKKAEYFAKLREYLEEY [RPP0],3.05 ± 0.067
11,EKKGIVQASVTSSTHER [RET1],3.45 ± 0.15
12,EKLKQFSWISVVNDLVG [SIR3],1.53 ± 0.08
13,EKLNKTDENTPSADGAD [ITC1],3.01 ± 0.054
14,EKLTLVTLSEIYNELSY [CSN9],1.57 ± 0.073
15,EKNGGLGWDLDAIIPFA [FAS2],3.28 ± 0.066
16,EKNYDRKEPPATVEECV [PRE6],3.11 ± 0.079
17,EKQIEELLDNCIETFVA [SRB6],3.19 ± 0.16
18,EKSPDPTIRSNAVLGLG [YCS4],2.3 ± 0.074
19,EKVRDYENSISKDLRSV [IRR1],1.82 ± 0.082
20,ELAKEAKKSTTISKEST [ESC2],2.63 ± 0.21
21,ELDQFWQEYSSVFKGGM [SRP14],2.86 ± 0.098
22,ELEGSFNKSAELSRIEN [YCS4],3.12 ± 0.087
23,ELEMIGGTNEDDFTDAI [YCS4],3.39 ± 0.069
24,ELEQLSSEALEAARICA [RPL10],1.33 ± 0.14
25,ELESMLEDLKNTKEIAV [RRP6],2.33 ± 0.063

row,Sequence,protein stability index
1,ELFKDYKPGSITLENIT [MED1],1.96 ± 0.062
2,ELGTAVGKLFRVGVVSI [RPL30],1.27 ± 0.23
3,ELIIDPLFKKALVDFDE [BRN1],3.01 ± 0.24
4,ELKTRDATNTSYKMIQL [SWP82],3.16 ± 0.059
5,ELLANKCPLLVEVDITL [GRR1],1.59 ± 0.082
6,ELLNADHQHILRKLKKM [RPC53],1.11 ± 0.15
7,ELLSSLEGKGSLEEIIA [RPP2B],2.63 ± 0.052
8,ELNVEKLNTFNLQTFTH [SRP72],1.9 ± 0.13
9,ELSDNEENFEATRTLVA [YCG1],2.89 ± 0.14
10,ELSDSWRAHDSSIVAID [YGL100W/SEH1],3.24 ± 0.054
11,ELTKNPNSNVELAGGNA [SMC1],3.32 ± 0.086
12,ELVKAHLGERAASVIGM [RPC82],2.57 ± 0.22
13,EMDEKSYEKNEDHVEDH [LIN1],3.49 ± 0.086
14,EMKIGSIESKLEEHKNH [SMC1],2.96 ± 0.18
15,ENELFNDRKQTTVSNDL [SSN2],3.11 ± 0.06
16,ENEVSDIDVTIVSKEYE [ESC2],3.09 ± 0.081
17,ENHNGQSISNENDVKPI [SWI3],2.48 ± 0.069
18,ENHNKGKLWKDVKARIA [QCR9],3 ± 0.13
19,ENIIQMEMIENRTMDGK [FAS1],2.81 ± 0.12
20,ENLPGLSISVAAEPMDS [SNU114],2.83 ± 0.074
21,ENPDLSTKKKILGIHTS [RPT2],2.98 ± 0.087
22,ENPTPEKGNAKMIDFAT [SIR3],3.32 ± 0.072
23,ENSAVAAKEGLALSSNI [COR1],2.49 ± 0.084
24,EPENNTVIEGVKEESQP [SWI3],3.08 ± 0.059
25,EQFYTKDIIDPKLTSIF [RPN2],2.36 ± 0.11

row,Sequence,protein stability index
1,EQHHINNLKNSGNSANN [GAL11],2.39 ± 0.1
2,EQKKTATEVTPQEPKHI [RPC19],2.6 ± 0.072
3,EQKLIDQHVINILWAIY [YCS4],1.93 ± 0.053
4,EQLSEEDAKLKTDLELL [RPN1],3.25 ± 0.1
5,EQTCVKLLDSGCENPAD [SRP72],2.91 ± 0.092
6,EQVLSAAATFPIAQPAT [RPL13A],1.74 ± 0.084
7,ERLMSRPFGVALLIAGH [PUP2],2.74 ± 0.1
8,ERPPYILNSYGVLKPDI [SIR2],3.15 ± 0.053
9,ESGIKPYFEQKIQETEL [RPT6],2.64 ± 0.061
10,ESGSTPISISNAPTFNP [YAR002W/NUP60],1.98 ± 0.077
11,ESKLRDDLERLKKIRAH [RPS18A],1.5 ± 0.16
12,ESKLSLETLFNRWHSES [FAS2],3.1 ± 0.064
13,ESNVNDSDMLTKSHNTV [NUT1],3.28 ± 0.086
14,ESQLQMDRTSLRKQYSA [SMC3],2.75 ± 0.067
15,ESRKAFFLGYMINRLLL [RPB2],1.12 ± 0.09
16,ESTTEATGNESQDATKV [YLR335W/NUP2],3.12 ± 0.11
17,ESVLPAARYDYAVAEQC [QCR2],2.97 ± 0.11
18,ESYKPSVQLPDMAKLKK [SWI3],2.81 ± 0.06
19,ETGYMSRRLMKSLEDLS [RPO31],3.02 ± 0.15
20,ETIKMKELDQELIIDPL [BRN1],2.6 ± 0.26
21,ETKDIRKQIQLLKKIIF [SRB4],2.42 ± 0.045
22,ETQFKLSRPYKALKTNI [CDC53],2.23 ± 0.05
23,ETQYFWKLLNQLVLRGL [YJR042W/NUP85],1.26 ± 0.11

# Same assay, conditions: ubr1∆
row,Sequence,protein stability index
1,EGIIKPISKHSKQAIYT [RPS25A],1.72 ± 0.056
2,EGKVTKLRRECSNPTCG [RPS31],3.1 ± 0.083
3,EGLDELPKIIQLQGPQW [SOH1],3.15 ± 0.056
